In this data set the target is T1, HNF-4α (UniProt P41235).
T1 sequence: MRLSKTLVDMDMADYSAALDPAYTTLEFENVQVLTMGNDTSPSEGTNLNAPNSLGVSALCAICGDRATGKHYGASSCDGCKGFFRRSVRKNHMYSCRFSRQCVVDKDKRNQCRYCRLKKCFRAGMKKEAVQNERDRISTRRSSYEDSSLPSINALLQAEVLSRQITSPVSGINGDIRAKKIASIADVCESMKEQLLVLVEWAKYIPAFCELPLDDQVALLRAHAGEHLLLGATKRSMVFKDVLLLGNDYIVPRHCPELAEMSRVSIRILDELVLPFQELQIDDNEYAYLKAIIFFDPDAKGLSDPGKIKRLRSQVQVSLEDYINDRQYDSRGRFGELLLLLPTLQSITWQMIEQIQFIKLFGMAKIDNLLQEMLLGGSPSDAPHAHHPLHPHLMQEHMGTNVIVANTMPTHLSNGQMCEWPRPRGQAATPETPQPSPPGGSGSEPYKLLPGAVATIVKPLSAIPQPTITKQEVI
Nature of the data set: cell_activity. As to conditions: CAT reporter with TK promoter and one to three C3P copies, COS-7, no added fatty acids.

“GCAGGTGACCTTTGCCCAGCGCC (double strand) [C3P element of apo CIII promoter (-87/-66)]” gave an activity (fold activation) of 7.

The values above are taken from US20040171585.
